Source: publication PMC7114298

Molecular target: MERS-CoV PLpro-[change] (wild type) (MERS-CoV) (UniProt K9N7C7)

In the case of “Ub-AMC (from UniProt P0CG48 1-76) (natural protein)”, the Km of Ub-AMC hydrolysis (steady-state kinetics, 25 °C) is reported as 16.6 µM.
